Results from the supplement of paper PMC9170038.

Tested on: MS2 coat protein
Assay: apparent KD of MS2 coat protein; designed switch direction (-1 OFF switch, 1 ON switch): -1; higher = weaker reporter binding
How it was run: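 Stalled E. coli RNA polymerase transcribed designed RNA switches on Illumina chips, which were then titrated with SNAP-549-labelled MS2 coat protein, doubling from 0.7 or 1.5 nM to 3 µM. Steps lasted from 0.8–1.5 h at the lowest concentration to 10–20 min at the highest. The apparent KD is each design's median over clusters of curve-fitted normalised fluorescence.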

[1] = input ligand: microRNA oligo, concentration not stated
[2] = Eterna round: R95, input ligand: FMN 200 uM
[3] = Eterna round: R95, input ligand: microRNA oligo, concentration not stated
[4] = Eterna round: R95, input ligand: none

Sequence	apparent KD of MS2 coat protein [1]	apparent KD of MS2 coat protein (input ligand: FMN 200 uM)	apparent KD of MS2 coat protein (input ligand: none)	apparent KD of MS2 coat protein [2]	apparent KD of MS2 coat protein [3]	apparent KD of MS2 coat protein [4]
UUGAUGUCAUCAGGAUAUAGUAUUUAAGACAUAUCUUCUUUCAAACAUGAGGAUCACCCAUGUCGCUAGAAGGGAUGAUUGAUU [JR_ExcNG2_Sub084] (Eterna round: R96, puzzle: Exclusion NG 2)	11.9 nM	–	–	–	–	–
CCCAGAUAGGAAGGAUAUUGUACAUGAGGAUCACCCAUGUAAUAAAUGAGGAUCACGGAUGUAGACAAGAAGGUCCGGAUAGGC [Ostracism 7 - Jieux - Exclusion NG 2] (Eterna round: R96, puzzle: Exclusion NG 2)	42.5 nM	108 nM	50.2 nM	–	–	–
ACAUGAGGAUCACCCAUGUUUUUUGGGUACUCUUGAUACAGCAAGGAUAUGCAUUAUUUAUGUACGCAGAAGGUGCAUUACGUC [JR_ExcNG3_Sub063] (Eterna round: R96, puzzle: Exclusion NG 3)	837 nM	–	–	–	–	–
GAAAAGUGAGGAUAUGGUAAAAGAAGAAGAAGAAGAAAACUCCAGAAGGCACAUGAGGAUCACCCAUGUGAAAG [salish99_ex4_r3_008] (puzzle: Exclusion 4)	–	–	–	17 nM	17.1 nM	16.5 nM
AGUAACUAUCACGAAAGUGAUAGUUACAAACAAGUGGAAACAUGAGGAUCACCCAUGUCCUCAUUUGCUCGUCUUAU [Sensor 3 - 6] (puzzle: Sensor v3, turn-off variant 2)	–	–	–	574 nM	556 nM	503 nM
GCUUGUAGAGGAUAUACGAGGGCCCGAGCGGAUAACACCGCACAUGAGGAUCACCCAUGUAGAAGGCUACCACC [Riquinza] (Eterna round: R96, puzzle: Exclusion 2)	19.1 nM	331 nM	27.9 nM	–	–	–
AGAAACUCAAGAGGAUAUCACAUGAGGAUCACCCAUGUAUAGCGCGCUAUGCUAGUCCUCGUAUUUGAGAAGGUUUGAAAUAAG [Mat - Exclusion NG 2 - Mod of JL - D79] (Eterna round: R96, puzzle: Exclusion NG 2)	12.5 nM	29.8 nM	18.3 nM	–	–	–
GGUACUAUCACCUGAGUGGUAGUGCCAUAAGCUUGUGAUACAUGAGGAUCACCCAUGUCCUCAUUUGCUCGUCUUAU [JL-sv3-2.27 JL mod] (puzzle: Sensor v3, turn-off variant 2)	–	–	–	486 nM	394 nM	–
CCAAACUGAGGAUAUACAUGAGGAUCACCCAUGUGCCCGCGGUCAUAUGUAGCCUAGUGUAGAAGGCAGAAAAC [Rearle] (puzzle: Exclusion 3)	–	–	–	–	33 nM	–
UUAUUUAGUGUGAGGAUAUGCUGGUCCUUGGAUCAGCAGAAGGCACAUGAGGAUCACCCAUGUAAUAUAUUAAU [JL bmx4 3.06] (puzzle: Brourd's mod of Exclusion 4)	–	–	–	–	73.1 nM	–
GAUUAUGCGAGCUUUAGGGACAUGAGGAUCACCCAUGUUCGUCUUAUUAGUCUAGGUGCACUGACAUACCUAAAUCU [JMF 90] (puzzle: Sensor v3, turn-off variant 1)	–	–	–	19.1 nM	26.1 nM	18.3 nM
GGUGAGCUAGGAUAUGCUUUGGGCACGCAUUCCUUCGAUAAACUUGAGGAUCACCCAAGUAGAAGGAGCUUGCC [salish99_ex2_r4_030] (Eterna round: R97, puzzle: Exclusion 2)	–	18.1 nM	12.9 nM	–	–	–
GAUUAUGCGAGCUUUAGGGACAUGAGGAUCACCCAUGUUCGUCUUAUUGAUCUAGGUGCACUAACAUACCUAAAUCU [JMF 34] (puzzle: Sensor v3, turn-off variant 1)	–	–	–	24 nM	41.2 nM	27.7 nM
GGUUGGCGAGGAUAUACAUGAGGAUCACCCAUGUGAGAGAAAUAAGUGAGGAAGAAAAGUAGAAGGCGCUGACG [salish99_ex3_r3_014] (puzzle: Exclusion 3)	–	–	–	222 nM	59.4 nM	79.2 nM
UGUGCGUAUGUGAGGAUAUGCUGGUCCUUGGCUCGGCAGAAGGCACAUGAGGAUCACCCAUGUGGUGUCGUACA [salish99_Bmod_ex4_071] (puzzle: Brourd's mod of Exclusion 4)	–	–	–	–	158 nM	–
GGUUGGCGAGGAUAUACAUGAGGAUCACCCAUGUGAAAAUAAAGUGAGGAAAAGAAAAGUAGAAGGCGCUGACG [Mat - Exclusion 3 - Mod of Salish D55] (puzzle: Exclusion 3)	–	–	–	158 nM	72.7 nM	118 nM
AAGAGUGAGCGAGGAUAUUGAUUUUGGCGUAGUCAAGAAGGCGCGUACAUGAGGAUCACCCAUGUGCUCAGAGCGCAAAAGGGU [Gequon] (Eterna round: R96, puzzle: Exclusion NG 1)	49.8 nM	208 nM	68.2 nM	–	–	–
AUAAGCUUUGAGAUCCUUAACAUGAGGAUCACCCAUGUUCGUCUUAUGAUGGUCUGAUCCCUGAGGAUCGGACCGUG [Mat - Sensor v3 - turn-off var 1 - JL Mod - D2] (puzzle: Sensor v3, turn-off variant 1)	–	–	–	277 nM	5.74 nM	380 nM
AAUAACAGAGGAUAUACUGUUUUAUGUGUUUAUUGUUUUGAACAUGAGGAUCACCCAUGUAGAAGGCUGAGUAA [JMF 39] (puzzle: Exclusion 2)	–	–	–	–	24.5 nM	–
UAAUGCAAGCAAAGAUCUUACAUGAGGAUCACCCAUGUGCUCGUCUUAUAAAGUACUAUCACGAAAGUGAUAGUACU [Mat - Sensor v3 - turn-off var 1 - Eli Mod - D92] (puzzle: Sensor v3, turn-off variant 1)	–	–	–	31.5 nM	129 nM	25.2 nM
UAUUAACAAGCAAGAUCCCACAUGAGGAUCACCCAUGUGCUCGUCUUAUAAGGUACUGUGACGAAAGUCACGGUACC [Sensor 3, v1 - 80] (puzzle: Sensor v3, turn-off variant 1)	–	–	–	26.5 nM	580 nM	28 nM
AAUUAAUUAAUUAAUUAAUACAUGAGGAUCACCCAUGUAAUUUAAGAUCCUUAUACAAGCUUUGAUCUCGUAAUUAA [Stov1/4-A1] (Eterna round: R97, puzzle: Sensor, turn-off variant 1)	–	98.9 nM	93.8 nM	–	–	–
CUGAGCUGAGGAUAUACAUGAGGAUCACCCAUGUAAAGCAGCUUGCGUACAGGCAGAUGUAGAAGGCAGUUCGG [Mod of JL 16 - Jieux - Exclusion 3] (Eterna round: R97, puzzle: Exclusion 3)	–	37.4 nM	18.1 nM	–	–	–
AGAUCUAUCACGAAAGUGAUAGAUCAAAUUAGUUUUUAAACAUGAGGAUCACCCAUGUCCUAGUGGGCUAGUCUUAU [Mat - Sensor v2 - var 2 - Mod - D135] (Eterna round: R96, puzzle: Sensor v2, turn-off variant 2)	167 nM	236 nM	239 nM	–	–	–
ACGUUGUCAGGAUAUCGUUAAUUUAGUUGUUUGUAUUAGUUCGAGAAGGGACAUGAGGAUCACCCAUGUUUGCA [Ex4 #31] (Eterna round: R97, puzzle: Exclusion 4)	–	32.7 nM	26.3 nM	–	–	–
